Results: ChEMBL document CHEMBL3525898, “Pharmacogenomics of gemcitabine metabolism: functional analysis of genetic variants in cytidine deaminase and deoxycytidine kinase” (Drug Metab Dispos, 2013)

Substrate: Nc1ccn([C@@H]2O[C@H](CO)[C@@H](O)C2(F)F)c(=O)n1
Experiment: Activity of human recombinant N-terminal His-SUMO fused wild type CDA expressed in Escherichia coli BL21(DE3) cells assessed as 2',2'-difluorodeoxyuridine formation by liquid chromatography-tandem mass spectrometry
Type: ADME

B1: Cytidine deaminase (Homo sapiens) (protein)
chain: MAQKRPACTLKPECVQQLLVCSQEAKKSAYCPYSHFPVGAALLTQEGRIFKGCNIENACYPLGICAERTAIQKAVSEGYKDFRAIAIASDMQDDFISPCGACRQVMREFGTNWPVYMTKPDGTYIVMTVQELLPSSFGPEDLQKTQ
Km: 630 µM | Vmax: 0.187 µmol/min/mg
